In the nanobody polyreactivity screen of Harvey et al. (2022):

Experiment: yeast display, Sf9 membrane polyspecificity reagent, FACS + sequencing; frameworks hold sequencing errors
Procedure, shortened: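 Genes from sorted yeast were amplified by colony PCR, read by MiSeq 2 × 250 sequencing and filtered on CDR length. These cells carried a synthetic nanobody library in Saccharomyces cerevisiae BJ5465 and were sorted by FACS into low and high (top ~1%) gates on anti-HA and streptavidin fluorescence. Polyreactivity is labelled according to the gate of origin.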

Row | Sequence | polyreactivity (PSR sort gate)
1 | QVQLVESGGGLVQAGGSLRLSCAASGFIFYYYAMGWYRQAPGKEREMFAAITQGGGSTYYADSVKGRFTISRDNAKNTVYFQMNSLKPEDTAVYYCAAVKRVYAHCRAFSSDFYYWGQGTQVNVSS | high polyreactivity
2 | QVQLVESGGGLVQAGGSLRLSCAASGFIFYYYTMGWYRQAPGKERELVAAISSGGSTYYADSVKGRFTISRDNAKNTVYLQMNSLKPEDTAVYYCNKRYPSPEYNYWGQGTQVTVSS | high polyreactivity
3 | QVQLVESGGGLVQAGGSLRLSCAASGFIFYYYTMGWYTQAPGKERELVAAISKSGGNTYYADSVKGRFTISRDNAKNTVYLQMNSLKPEVTAVYYCAASRYNTVTYYYSGQGTQVTVSS | high polyreactivity
4 | QVQLVESGGGLVQAGGSLRLSCAASGFIIEVNAMGWYRQAPGKERELVARIDWSGGSTYYADSVKGRFTISRDNAKNTVYLQMNSLKPEDTAVYYCNADWTYADPNEYGYWGQGTQVTVSS | low polyreactivity
5 | QVQLVESGGGLVQAGGSLRLSCAASGFIIGGNPMGWYRQAPGKVRELVAAITGGGSTYYADSVKGRFTISRENAKNTVYLQMNSLKPEDTAVYYCNAGRVLRLAYNYWGQGTQVTVSS | low polyreactivity
6 | QVQLVESGGGLVQAGGSLRLSCAASGFIIGSYTMGWYRQAHGKERELVASITKRGGSTYYADSVKGRFTISRDNAKNTVYLQMNSLKPEDTSVYYCAATYWFSHRSRYDYWGQGTQVTVSS | high polyreactivity
7 | QVQLVESGGGLVQAGGSLRLSCAASGFIIKFCAMGLYRQAPGKERELVATITFSSGTTYYADSVKGRFTISRDNAKYTVYLQMNSLKPEDTAVYYCAASTLPAWPYDGPAGPRYDYWGQGTQVTVSS | low polyreactivity
8 | QVQLVESGGGLVQAGGSLRLSCAASGFIIPGYAMGWYRQAPGKERELVAAISRSGTSTYYADSVKGRFTISRDNAKNTVYLQMNSLKPEDTAVYYCAAKPASLSVRGYDYWGQGTQVTVSS | high polyreactivity
9 | QVQLVESGGGLVQAGGSLRLSCAASGFIIQGNAMGWYRQAPGKERELVAAISSSVSTYYADSVKGRFTISRDNAKNTVYLQMNSLKPEDTAVYYCNAGFPLSLWLGDYWGQGTQVTVSS | low polyreactivity
10 | QVQLVESGGGLVQAGGSLRLSCAASGFIISDYAMGWYRQAPGKERELVAVITWRSGSTYYADSVKGRFTISRDNAKNTVYFQMHSLKPVDTAVYYCAARYYRNYSQGRRLGYNYWGQGTQVTVSS | high polyreactivity
11 | QVQLVESGGGLVQAGGSLRLSCAASGFIISNNAMGWYRQAPGKERELVAVINGGGSTYYADSVKGRFTISRDTAKNTVYLQMNSLKPEDTAVYYCNADRFADYDYWGQGTQVTVSS | low polyreactivity
12 | QVQLVESGGGLVQAGGSLRLSCAASGFIITGNPMGWYRQAPGKERELVAAITSGGNTYYADSVKGRFTISRDNANNTVYLQMNSLKPEDTAVYYCAKYVPHWRILMEYWGQGTQVTVSS | low polyreactivity
13 | QVQLVESGGGLVQAGGSLRLSCAASGFIIVNNAMGWYRQAPGKERELVATISRGGSTNYADSVKGRFTISRDNAKNTVYLQMNSLKPEDTAVYYCNARRSVKVYGVDYWGQGTQVTVSS | high polyreactivity
14 | QVQLVESGGGLVQAGGSLRLSCAASGFIIVYYAMGWYRQAPGKERELVAAITSSGGSTYYADSVKGRFTISRDNAKNTVYLQMNSLKPEDTAVYYCNRVWYATDFVNTMGYWGQGTQGTVSS | low polyreactivity
15 | QVQLVESGGGLVQAGGSLRLSCAASGFIIYFYAMGWYRQAPGKERELVAAINYPGDSTYYADSVKGRFTISRDNAKNTVYLQMNSLKPEDTAVYYCNKVLYNKWPYVTLSAFPTVGYWGQGTQVTVSS | high polyreactivity
16 | QVQLVESGGGLVQAGGSLRLSCAASGFILDTYAMGWYRQAPGKERELVAAISASGSSTYYADSVKGRFTISRDNAKNTVYLQMNSLKPEDTAVYYCAAKDTGYGYGFPRLDYWGQGTQVTVSS | low polyreactivity
17 | QVQLVESGGGLVQAGGSLRLSCAASGFILDYNAMGWYRQAPGKERELVATITGRGDRTYYADSVKGRVTISRDNAKNTVYLQMNSLKPEDTAGYYCAAGFDGSRHPGFDSWGQGTQVTVSS | low polyreactivity
18 | QVQLVESGGGLVQAGGSLRLSCAASGFILDYYAMGWYRQAPGKERELVAANSYSGGSTYYADSVKGRFTISRDNAKNTVYLQMTSLKAEDTGVYYGNAGVLVLLYAYLPSELEYWGQGTQVTVSS | low polyreactivity
19 | QVQLVESGGGLVQAGGSLRLSCAASGFILEPNAMGWYRQAPGKERELVATISFSGGGTYYADSVKGRFTISRDNAKNNVYLQMNSLKPEDTAVYYCAAQGRDSDYVDFDYWGQGTQVTVSS | high polyreactivity
20 | QVQLVESGGGLVQAGGSLRLSCAASGFILGTYAMGWYRQAPGKERELVAAISRSGGSTYYADSVKGRFTISRDNAKNSVYLQMNSLKPEDTAVYYCNTVRVHGFPIDRIYDYWGQGTQVTVSS | high polyreactivity
21 | QVQLVESGGGLVQAGGSLRLSCAASGFILGVYAMGWYRQAPGKERELVAAISKSGDSTYYADSVKGRFTISRDNAKNTVYLLMNSLKPEDTAVYYCNADWSWYNYYDFDYWGQGTQVTVSS | low polyreactivity

Row | Sequence | polyreactivity (PSR sort gate)
22 | QVQLVESGGGLVQAGGSLRLSCAASGFILIRNGMGCYRQAPGKERELVAAISRSGRTYYADSVKGRFTISRDNAKNTVYLQMNSLKPEDTAVYYCAKRDYLYGRYDYSGQGTQVTVSS | high polyreactivity
23 | QVQLVESGGGLVQAGGSLRLSCAASGFILKYYAMGWYRQAPGKERELVAAISWSGGSTYYADSVKGRFTISRDNAKNTVYLQMNSLKPEVTAVYYCNAYYVYNSLGYWGQGTQVTVSS | high polyreactivity
24 | QVQLVESGGGLVQAGGSLRLSCAASGFILLDNAMGRYRQAPVKEREFVASINISGDRTFYADSVKGRFTISRDNAKNTVYLQMNSLKPEDTAVYYCAKEPGLGRRSTTAYDYWGQGTQVTVSS | low polyreactivity
25 | QVQLVESGGGLVQAGGSLRLSCAASGFILNKNVMGWYRQAPGKERELVAAITASGSSTYYADSVKGRFTISRDNAKNTVYLQMNSLKPEDTAVYYCAARGYWSSYAPRFNYWVQGTQVTVSS | high polyreactivity
26 | QVQLVESGGGLVQAGGSLRLSCAASGFILPNYTMGWYRQAPGKERELVAAISRGGSTNYADSVKGRFTISRDNAKNTVYLQMNSLKPEDTAVYYCAVDAWTGESYWEHYYWGQGTQVTVSS | low polyreactivity
27 | QVQLVESGGGLVQAGGSLRLSCAASGFILQTYAMGWYRQAPGKERELVAAITSGARTYYADSVKGRFTISRDNAKNTVYLQMNSLKPEDTAVYYCAASIWLYRYYYWGQGTQVTVSS | high polyreactivity
28 | QVQLVESGGGLVQAGGSLRLSCAASGFILRAYAMGWYRQAPGKEREFVAAITRRGGSTYYADSVKGRFTISRDNAKNTVYLQMNSLKPEDTAVYYCAAKFFSSPHNLGYWGQGTQVTVSS | high polyreactivity
29 | QVQLVESGGGLVQAGGSLRLSCAASGFILRAYAMGWYRQAPGKERELVAAITSATSTNYADSVKGRFTISRDNAKNTVYLQMNSLKPEDTAVYYCAADGGGGEFSYDSWGQGTQVTVSS | low polyreactivity
30 | QVQLVESGGGLVQAGGSLRLSCAASGFILRIYTMGWYRQAPGKERELVAAINWSGGRTYYADSVKGRFTISRDNAKNTVYLHMNSLKPEDTAVYYCAAVYGVSVSKYYYWGQGTQVTVSS | high polyreactivity
31 | QVQLVESGGGLVQAGGSLRLSCAASGFILRRYTMGWYRQAPGKEREFVAGISWRGGSTYYADSVKGRFTISRDNAKNTVYLQMNSLKPEDTAVYYCAAETYQLTWVLYYYWGQGTQVTVSS | high polyreactivity
32 | QVQLVESGGGLVQAGGSLRLSCAASGFILRTNAMGWYRQAPGKERELVAAISVSGGRTYYADSVKGRFTISRDNAKNTVYLQMNSLKPEDTAVYYCAARDSTKLLSGYTHYYWGQGTQVTVSS | high polyreactivity
33 | QVQLVESGGGLVQAGGSLRLSCAASGFILRYYAMGWYRQAPGKERELVAAITRGGSTYDADSVKGRFTISRDNAKNTVYLQMNSLKPEDTAVYYFDRRVGYKFSYDYWGQGTQVTVSS | high polyreactivity
34 | QVQLVESGGGLVQAGGSLRLSCAASGFILYGNAMGLYRQAPGKERELVAAISRRGGSTYYADSVKGRFTISRDNAKNTVYLQMNSLKPEDTAVYYCAKDGPGGGTRIYEYWGQGTLVTVSS | high polyreactivity
35 | QVQLVESGGGLVQAGGSLRLSCAASGFILYRYAMGWYRQAPGKERELVAAISSGGRTYYADSVKGRFTISRDNAKNTVYLQMNSLKPEDTAVYYCNAAYKNSPYDYWGQGTQVTVSS | high polyreactivity
36 | QVQLVESGGGLVQAGGSLRLSCAASGFILYSYAMGWYRQAPGKERELVAAINSTGSTYYADSVKGRFTISRDNAKNTVYLQMNSLKPEDTAVYYCATDPWYQTDHSYDTPYYYWGQGTQVTVSS | low polyreactivity
37 | QVQLVESGGGLVQAGGSLRLSCAASGFILYTYAMGWYRQAPGKERELVADIDSGDGTYYADSVKGRFTISRDNAKNTVYLQMNSLKPEDTAVYYCAAQVVTWSYVYDVPGYYRYDYWGQGTQVTVSS | low polyreactivity
38 | QVQLVESGGGLVQAGGSLRLSCAASGFILYYYAMGWYRQAPGKERELVAAISWSGDSTYYADSVKGRFTISRDNAKNTVYLQMNSLKPEDTAVYYCAATWQLTHRYYWGQGTQVTVSS | low polyreactivity
39 | QVQLVESGGGLVQAGGSLRLSCAASGFIRTYAMGWYRQAPGKERELVAAITSSGGRTYYADSVKGRFTISRDNAKNTVYLQMNSLKPEDTAVYYCAAGLGRYLRYNYWGQGTQVTVSS | high polyreactivity
40 | QVQLVESGGGLVQAGGSLRLSCAASGFISAYYAMGWYRQAPAKERELVAGINSNGGSTYYADSVKGRFTISRDNAKNTVYLQMNSLKPEDTAVYYCNKRYRHLYYKSVGSYDYWGQGTQVTVSS | high polyreactivity
41 | QVQLVESGGGLVQAGGSLRLSCAASGFISDGNYMGWYRQAPGKERELVAAISSGATTHYADSVKGRFTISRDNAKNTVYLQMNSLKPEDTAVYYCNRGDDWRYDYWGQGTQVTVSS | low polyreactivity
